Experiment: yeast display, Sf9 membrane polyspecificity reagent, FACS + sequencing; frameworks hold sequencing errors
How it was run: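 Genes from sorted yeast were amplified by colony PCR, read by MiSeq 2 × 250 sequencing and filtered on CDR length. These cells carried a synthetic nanobody library in Saccharomyces cerevisiae BJ5465 and were sorted by FACS into low and high (top ~1%) gates on anti-HA and streptavidin fluorescence. Polyreactivity is labelled according to the gate of origin.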
In the case of “QVQLVESGGGLVQEGGSLRLSCAASGSIYGWDAMGWYRQAPGQEREYVAAIDYSDGGRTYSADSVKGRFTISRDPAKNTVYLQMNSLKPADTAVYYCAAGYVYPHYFIDEYWGQGTQVTVSS”, the “polyreactivity (PSR sort gate)” value is reported as “high polyreactivity”. For “QVQLVESGGGLVQEGGSLRLSCAASGSTFERNAMGWYRQAPGKERELVAAISAIGDSTYYADSVKGRFTISRDNAKNTVYLQMKSLNPEDTAVYYCAARYTRYHIGRGYYYWGQGTQVTVSS”, the “polyreactivity (PSR sort gate)” value was “high polyreactivity”. With “QVQLVESGGGLVQEGGSLRLSCAASGSTFKYYAMGWYRQAPGKERELVAAISKGATRTYYADSVKGRFTISRDNAKNTVYLQMNSLKPEDTAVYYCAARGRWNVPARRDYWGQGTQVTVSS” the “polyreactivity (PSR sort gate)” value was “high polyreactivity”. With “QVQLVESGGGLVQEGGSLRLSCAASGSTFLKYDMGWYRQAPGNERELVAAISWDGGSTYYADSVKGRFTISRDNAKNTVYLQMNSLKPEDTAVYYCNADYDVYLTICYYYGEFDYWGQGTQVTVSS” the “polyreactivity (PSR sort gate)” value was “low polyreactivity”. With “QVQLVESGGGLVQEGGSLRLSCAASGSTFSSYAMGWYRQAPGKERELVAAISWSGGSTYYADSVKGRFTISRDNAKNTVYLQMISLKPEDTAVYYCAAYTYSFRANHDYWGQGTQVTVSS” the “polyreactivity (PSR sort gate)” value was “high polyreactivity”. With “QVQLVESGGGLVQEGGSLRLSCAASGSTFSWYTMGWYRQAPGKERELVAAITRGGTTYYADSVKGRFTISRDNAKNTVYLQMISLKPEDTAVYYCAARYSRDVRMGYWGQGTQVTVSS” the “polyreactivity (PSR sort gate)” value was “high polyreactivity”. With “QVQLVESGGGLVQEGGSLRLSCAASGTFYDYVMGLYRPAPGKERELVATISDNDGSTYYADSVKGRFTISRDNAKNTVYLQKNSLKPEDTALYYCNAGRTWPIVADYSWLSYGSWGQGTQVTVSS” the “polyreactivity (PSR sort gate)” value was “high polyreactivity”. For “QVQLVESGGGLVQEGGSLRLSCAATGSTFDANAMGWYRQAPGKERELVATISDGGSTNYADSVKGRFTISRDNAKNTVYLQMNSLKPEDTAVYYCAAVKLFLGLGYDYWGQGTQVTVSS”, the “polyreactivity (PSR sort gate)” value was “low polyreactivity”. In the case of “QVQLVESGGGLVQEGGSLRLSCAPSGFIFRRNAMGAYRQAPGKERELVAAITKSGGSTYYADSVKGRFTISRDNAKNTVYLQMNSLKPEDTAVYYCAAPTWTRSSFDYWGQGTQVTVSS”, the “polyreactivity (PSR sort gate)” value is reported as “high polyreactivity”. With “QVQLVESGGGLVQEGGSLRLSCSDSGRILRRYTMGWYRQAPGKERELVAAISSGGNTYYADSVKGRFTISRDNAKNTVYLQMNSLKPEDTGVDYCAARVRRYWEYDYWGKGTQVTVSS” the “polyreactivity (PSR sort gate)” value was “low polyreactivity”. For “QVQLVESGGGLVQEGGSLRLSWAASGSTFARYAMGWYRQAPGKERELVAAISRRGGSTYYADSVKGRFTISRDKAKNTVYVQMHRLKPEDTGVSYCAARYGIISSFEYDYWGQGTQVTVSS”, the “polyreactivity (PSR sort gate)” value was “high polyreactivity”. In the case of “QVQLVESGGGLVQEGGSLSLSCAASGFTFYYYAMGLYRQAPGKERELVASISWRGGSTYYADSVKGRFTISRDNAKNTVYLQMNSLKPEDTAVYYCAAQKRGSPGYRRDYWGQGTQVAVSS”, the “polyreactivity (PSR sort gate)” value is reported as “high polyreactivity”. In the case of “QVQLVESGGGLVQEGGSLSLSCAASGITLSLYAMGRYRQAPGKERELVAAISRSGGSTYYAYSVKGRFTISRDNAKNTVYLQMNSLKPVDTAFFYCATSWTPNYFVTSDYWGQGTQVTVSS”, the “polyreactivity (PSR sort gate)” value is reported as “high polyreactivity”. For “QVQLVESGGGLVQEGGTLRLSCAASGSISIRNAMGWYRQAPGKERELVAAITYSGGSTYYADSVKGRFTISRDTAKNTVYLQMNSLKPEDTAVYYCAKDHYRFRYDYWGQGTQVTVSS”, the “polyreactivity (PSR sort gate)” value was “low polyreactivity”. With “QVQLVESGGGLVQERGSLRLSCAASGSIFFPYAMGWSRQAPGKDRELVAAITRGGNTKYADSVKGRFTISRDNAKNTVYIQMNSLKPEDTAVFYCAARGASIPYGYWGQGTQVTVSS” the “polyreactivity (PSR sort gate)” value was “high polyreactivity”. For “QVQLVESGGGLVQGGGSLRLSCAASGFIFRYYAMGWYRQAPGKERELVAAINGRGDSTYYADSVKGRFTISRDNAKNTVYLQMNSLKPEDTAVYYCAAQGYRYLSRDRYDYWGQGTQVTVSS”, the “polyreactivity (PSR sort gate)” value was “high polyreactivity”. In the case of “QVQLVESGGGLVQGGGSLRLSCAASGFIFSRYAMGWYRPAPGKERELVAAISRTGSTNYADSVKGRFTISRDNAKNTVYLQMNSLNPEDTAVYYCNARYITFNGYGYGYWEQGTQVTVSS”, the “polyreactivity (PSR sort gate)” value is reported as “high polyreactivity”. In the case of “QVQLVESGGGLVQGGGSLRLSCAASGLIFYHYAMGWYRQAPGKEREFVAAITVSGGSTSYADSVKGRFTISRDNAKNTVDLQMNSLKPEDNAVYYSADRVNYRSPGVSKGRDYWGQGTQVTVSS”, the “polyreactivity (PSR sort gate)” value is reported as “low polyreactivity”. For “QVQLVESGGGLVQGGGSLRLSCAASGSIFSTYVMGWYRQGPGKERELVAAISRRGGSTYYADSVKGRFTISRDNAKNTVYLQMNSLNPADTAVYYCAADGTVGRRDYWGQGTQVTVSS”, the “polyreactivity (PSR sort gate)” value was “high polyreactivity”. With “QVQLVESGGGLVQGGGSLRLSCAASGSIFYPYAMGWYRQAPGKERELVARITSSTGSTYYADSVKGRCTISRATAKNTVYLQMTSLKPEDTAVYYCNARRQRNKSYNYWGQGTQVTVSS” the “polyreactivity (PSR sort gate)” value was “high polyreactivity”. In the case of “QVQLVESGGGLVQGGGSLRLSCAASGSISDVYAMGWYRQAPGKERELVAANTSGASTYYADSVKGRFTISRDNAKNTVYLQMNSLKPEDTAVYYCAADSDSQWGMDYWGQGTQVTVSS”, the “polyreactivity (PSR sort gate)” value is reported as “low polyreactivity”. In the case of “QVQLVESGGGLVQGGGSLRLSCAASGSNLYKNPMGWYRPAPGKERELVASITYSGGRTNYADSVKGRFTISRDTAKNTVYLQMNSLKPEDTSVYYCPAAYVYYNPAYRYAPTAVDYDYWGQGTQVTVSS”, the “polyreactivity (PSR sort gate)” value is reported as “low polyreactivity”. In the case of “QVQLVESGGGLVQGGGSLRLSCAASGSTFWANAMGWYRQATGKERELVAGITWNAGSTYYADSVKGRFTISRDNAKNPVYLQMNRLKPEDTAVFYCAASYHFQGWGPGYNSWGQGTQVTVSS”, the “polyreactivity (PSR sort gate)” value is reported as “low polyreactivity”. For “QVQLVESGGGLVQGGGSLRLSCASSGSIFGWNAMGWYRPAPGKERELVAAISFSGSCTFYADSVKGRFTISRDNAKNTVYLQMNSLKPEDTAVYDCAAEPYSVYEYYYWGQGTQVTGSS”, the “polyreactivity (PSR sort gate)” value was “high polyreactivity”. In the case of “QVQLVESGGGLVQPGGSLRLSCAASGGTFYRYAMGWYIQAPGKERELVAAISSRGGSTYYADSVKGRYTISRDNAKNTVYLQMNSLKPEDTAVYYCAALFYLTQWQYDYWGQGTQVTVSS”, the “polyreactivity (PSR sort gate)” value is reported as “high polyreactivity”. For “QVQLVESGGGLVQPGGSLRLSCAASGIISFYNAMGWYRPAPGKERELVAAITWSVGSTYYADSVKGRFTISRDNAKNTVYLQMNSLKPEDTAVYYCNVSPGFWRSIPLYYNLRYGYWGQGTQVTVSS”, the “polyreactivity (PSR sort gate)” value was “low polyreactivity”. For “QVQLVESGGGLVQPGGSLRLSCAASGLTISYYAMGWYRQAPGKEREFVAAITSRGGDTYYADSVKGRFTISRDNAKNTVYLQMNSLKPEDTAVYYCAVRPRYYGTYRYYYWGQGTQVTVSS”, the “polyreactivity (PSR sort gate)” value was “high polyreactivity”. In the case of “QVQLVESGGGLVQPGGSLRLSCAASGRILYYHAMAWYRQAPGKERELVARISSGGSTNYADSVKGRFTISRDNAKNTVYLQMNSLKPEDTAVSYCAVAKGGLAWGVGRGGRYDYWGQGTQVTVSS”, the “polyreactivity (PSR sort gate)” value is reported as “low polyreactivity”. For “QVQLVESGGGLVQPGGSLRLSCAASGSIFGYNAMGWYRPAPGKERELVAVITRSDGSTYYADSVKGRFTISRDNAKNTVYLQMNSLKPEDTAVYYCNAETHVYYWGVVIYEYNYWGQGTQVTVSS”, the “polyreactivity (PSR sort gate)” value was “low polyreactivity”. With “QVQLVESGGGLVQPGGSLRLSCAASGSIYTNAMGWYRQAPGKERELVAAISWSGGRTYYADSVKGRFTISRDNAKNTVYFQLNSLKPEDTAVYYCNTRGTRIASGHYYWGQGTQVTVSS” the “polyreactivity (PSR sort gate)” value was “high polyreactivity”. With “QVQLVESGGGLVQPGGSLRLSCAASGSTFWLYAMGWYRQAPGQERELVAAISARTGSTYYADSVKGRFTISRDNAKNTVYLQMNSLKPEDTAVYYCNVRYRGTPYGYWGQGTQVTVSS” the “polyreactivity (PSR sort gate)” value was “low polyreactivity”. In the case of “QVQLVESGGGLVQPGRSLRLSCAASGFTFYIYAMGWYRQAPGKERELVAAISGRGSSTYYADSVKGRFTISRDNAKNSVYLQMNSQTPEDTAVYYCAAGKSKYGVRGDYWGQGTQVTVSS”, the “polyreactivity (PSR sort gate)” value is reported as “high polyreactivity”. In the case of “QVQLVESGGGLVQPRGSLRLSCAASGGTFKFYAMGWYRQAPGKDRELVAAITSGGSTNYADSVKGRFTISRDNAKNTVYLLMNSLKPEDTALYYCNADFYQRYGVFSSRRYFYWGQGTQVTVSS”, the “polyreactivity (PSR sort gate)” value is reported as “low polyreactivity”. With “QVQLVESGGGLVQPVGSLRLSCAASGYTFPRYTMGWSRQAPGKERELVAAITSSGSTNYADSVKGRFTISRDNAKNTVYLQMNSLKPEDTAVYYCNKARIRTWSRGYDYWGQGTQLTVSS” the “polyreactivity (PSR sort gate)” value was “high polyreactivity”. With “QVQLVESGGGLVQSGGSLRLRCAASGRIFGGYAMGWYRQAPGKERELVAAISWRGGSTSYADSVKGRFTISRDNAKNTVYLQMNSLKPEDTAVYYCAKYWGHTYGSWGQGTQVTVSS” the “polyreactivity (PSR sort gate)” value was “high polyreactivity”. In the case of “QVQLVESGGGLVQSGGSLRLSCAASGFTFSWYAMGSYRQAPGKERELVAAISWDGDSTYYADSVKGRCTISRDNAKNTVFLQMNSLKPEETAVYYCAADFSYYWDGYDYWGQGSQVTVSS”, the “polyreactivity (PSR sort gate)” value is reported as “high polyreactivity”. In the case of “QVQLVESGGGLVQSGGSLRLSCAASGFTFYFNAMGWYRPAPGKERELVAAIRWSGGNTYYADSVKGRFTISRDNAKNTVYLQMNSLKPEDTAVYYCNKDPWHDTYSVKEYDYWGQGTQVTVSS”, the “polyreactivity (PSR sort gate)” value is reported as “low polyreactivity”. In the case of “QVQLVESGGGLVQSGGSLRLSCAASGGSFTFYAMGWYRQAPGKERELVATINWSGGSTYYADSVKGRFTISRDNAKNTVYLQMNSLKPEDTAVYYCNAAWPYKSVEYWGQGTQVTVSS”, the “polyreactivity (PSR sort gate)” value is reported as “low polyreactivity”. In the case of “QVQLVESGGGLVQSGGSLRLSCAASGGTFHKYDMGWYRQAPGKERELVAAITRSGGSTYYADSVKGRFTISRDNAKNTVYLQMNSLKPEDTAVYFCNAGKRGSTYYYWGQGTQVTVSS”, the “polyreactivity (PSR sort gate)” value is reported as “high polyreactivity”. In the case of “QVQLVESGGGLVQSGGSLRLSCAASGIIFDSYAMGWYRQAPGKERELVAAISSRGASTYYADSVKGRFTISRDNAKYTVYLQMNSLKPEDTAVYYCNAVYYAYRYGSSYDWGQGTQVTVSS”, the “polyreactivity (PSR sort gate)” value is reported as “high polyreactivity”. With “QVQLVESGGGLVQSGGSLRLSCAASGIIFEYYDMGWYRQAPGKEREFVAAIDSGGSTYYADSVKGRFTISRDNAKNTVYLQMNSLKPEDTAVYYCAASRPPNTSNTGYGSWGQGTQVTVSS” the “polyreactivity (PSR sort gate)” value was “low polyreactivity”.
